{"source": "paper PMC8464079", "binders": {"B1": {"name": "PBE-5A FAM (ssRNA)", "RNA": "UGUAAAUA"}}, "assay_in_all_cases": "fluorescence polarization", "key": {"[1]": {"target": "T1, MUT-#9 (Q476A) (Caenorhabditis elegans, UniProt Q09487 172-535, Q476A)", "T1 sequence": "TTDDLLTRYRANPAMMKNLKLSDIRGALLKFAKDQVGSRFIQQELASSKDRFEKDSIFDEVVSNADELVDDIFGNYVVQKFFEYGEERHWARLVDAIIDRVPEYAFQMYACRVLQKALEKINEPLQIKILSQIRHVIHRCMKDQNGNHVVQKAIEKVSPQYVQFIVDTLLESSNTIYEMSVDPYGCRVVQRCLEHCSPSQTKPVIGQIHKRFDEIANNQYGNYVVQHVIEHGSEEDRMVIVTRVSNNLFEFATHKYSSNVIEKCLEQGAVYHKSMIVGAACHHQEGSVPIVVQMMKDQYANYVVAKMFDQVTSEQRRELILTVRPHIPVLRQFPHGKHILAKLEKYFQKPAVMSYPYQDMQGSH"}, "[2]": {"target": "T2, MUT-#13 (K513R) (Caenorhabditis elegans, UniProt Q09487 172-535, K513R)", "T2 sequence": "T1 sequence with A305Q, K342R"}, "[3]": {"target": "T3, MUT-8G (Caenorhabditis elegans, UniProt Q09487 172-535, N472S;Y473N;Q476E)", "T3 sequence": "T1 sequence with N301S, Y302N, A305E"}, "[4]": {"target": "T4, MUT-#10 (Q476E) (Caenorhabditis elegans, UniProt Q09487 172-535, Q476E)", "T4 sequence": "T1 sequence with A305E"}, "[5]": {"target": "T5, MUT-4A (Caenorhabditis elegans, UniProt Q09487 172-535, N318C;H319R)", "T5 sequence": "T1 sequence with N147C, H148R, A305Q"}, "[6]": {"target": "T6, MUT-4N (Caenorhabditis elegans, UniProt Q09487 172-535, N318A;H319A;Q322A)", "T6 sequence": "T1 sequence with N147A, H148A, Q151A, A305Q"}}, "note": "Substitutions are numbered along the chain they refer to.", "data": [{"binder": "B1", "values": [{"measurement": "Kd", "setting": "[1]", "value": "0.0635 ± 0.0111", "unit": "µM"}, {"measurement": "Kd", "setting": "[2]", "value": "0.06 ± 0.0132", "unit": "µM"}, {"measurement": "binding result", "setting": "[3]", "value": "no binding"}, {"measurement": "Kd", "setting": "[4]", "value": "0.519 ± 0.0631", "unit": "µM"}, {"measurement": "Kd", "setting": "[5]", "value": "0.00044 ± 0.00039", "unit": "µM"}, {"measurement": "Kd", "setting": "[6]", "value": "0.161 ± 0.022", "unit": "µM"}]}]}
